Drawing on article PMC4104964, this text covers fraction of single yMED images with GST-CTD density for one substance.

The target in the test is yeast Mediator (yMED), core, devoid of the CKM (yeast (endogenous in strain BJ2168)) (UniProt P38782). Kind of test: single-particle EM.

For “recombinant GST-labeled CTD of RNAPII (from UniProt P04050 1-1733) (domain or fragment)”, the fraction of single yMED images with GST-CTD density was 10%.
